Assay results published in publication PMC6057921.

Assays:
[1] = target: Arp2/3 complex (untagged, yeast) (yeast (RedStar yeast cakes)) (UniProt P32381); assay: SEC; Superdex 200 Increase 10/300 GL, 4 °C; 0.7 µM Arp2/3 complex and 7 µM Abp1 incubated >1 h on ice; 10 mM HEPES pH 7.0, 50 mM KCl, 1 mM EGTA, 2 mM MgCl2, 0.5 mM DTT, 0.1 mM ATP; bands of the peak fraction quantified on stain-free gels against standards
[2] = target: SNAP-tagged S. cerevisiae Arp2/3 complex (dye-labelled) (S. cerevisiae) (UniProt P32381); assay: single-molecule TIRF colocalisation; 649-biotin-SNAP-Arp2/3 complex anchored by streptavidin; 20 nM Abp1-SNAP-549 flowed in; no actin; 0.25 s intervals for 120 s
[3] = target: SNAP-tagged S. cerevisiae Arp2/3 complex (dye-labelled) (S. cerevisiae) (UniProt P32381); assay: single-molecule TIRF colocalisation; 649-biotin-SNAP-Arp2/3 complex anchored by streptavidin; 20 nM Abp1-SNAP-549 with 200 nM unlabeled Abp1 (220 nM total); 0.25 s intervals for 120 s; double exponential fit
[4] = target: Arp2/3 complex (untagged, yeast) (yeast (RedStar yeast cakes)) (UniProt P32381); assay: negative-stain single-particle electron microscopy; Abp1-SNAP and Arp2/3 complex at 1:1 molar ratio (100 nM each), 30 min at room temperature, uranyl formate stain; random conical tilt 3D reconstructions at 21 Å
[5] = target: Rabbit skeletal muscle actin (filaments) (rabbit) (UniProt P68135); assay: single-molecule TIRF colocalisation; as a1 with 0.5 µM Abp1 present; double exponential fit
[6] = target: Abp1-SNAP (S. cerevisiae Abp1 with C-terminal SNAP-tag, dye-labelled) (S. cerevisiae) (UniProt P15891); assay: single-molecule TIRF colocalisation; Abp1-SNAP-biotin-549 anchored by streptavidin; JF646-SNAP-Arp2/3 flowed in (10 nM in the results, 15 nM in the methods); no actin; 0.25 s intervals for 60 s
[7] = target: Rabbit skeletal muscle actin (filaments) (rabbit) (UniProt P68135); assay: single-molecule TIRF colocalisation; 10 nM JF646-SNAP-Arp2/3 on tethered, preformed unbranched OG-labeled actin filaments, no actin monomers, no Abp1; recorded at 0.15 s intervals; TIRF buffer pH 7.4; single exponential fit

## Abp1 (S. cerevisiae, untagged after GST cleavage) (from UniProt P15891 1-592) (natural protein)
[1]
  stoichiometry N (Abp1 per Arp2/3 complex): 2

## Abp1-SNAP (S. cerevisiae Abp1 with C-terminal SNAP-tag, dye-labelled) (from UniProt P15891 1-592) (natural protein)
[2]
  average lifetime: 0.36 s
[3]
  lifetime of long-lived interactions at 220 nM total Abp1: 36 s
[4]
  percent of particles in the Class 1 Abp1-bound reconstruction: 30%

## SNAP-tagged S. cerevisiae Arp2/3 complex (dye-labelled) (from UniProt P32381 1-391; P47117 1-449; P38328 1-384)
[5]
  lifetime of the longer-lived binding events with 0.5 µM Abp1: 2 s
[6]
  average dwell time: 0.37 s
[7]
  average lifetime on filament sides: 0.37 s
